Experimental data: patent publication US20230137032A1 (GlaxoSmithKline, published 2023)

Columns and labels:
[1] = target: T1, recombinant human BCMA Fc 4-53 (human); assay: competition ELISA: binding of recombinant human BAFF to coated recombinant human BCMA Fc 4-53, biotinylated anti-BAFF and streptavidin-HRP, % of control
T1 construct: also called Human BCMA CD33-hBCMA ECD (4-53) TEV-Fc; recombinant BCMA
Experimental: (§1) 96 well flat bottomed plates were coated overnight with 1 μg/mL solution of recombinant human BCMA Fc 4-53 in PBS. Following a wash step using 0.05% TWEEN20, plates were blocked with 2% Bovine Serum Albumin solution in PBS for 1 hour at room temperature. […] 40 μL of 2% BSA was added to the relevant control wells. […] Equivalent volume of 2% BSA was added to the relevant control wells. Plates were allowed to incubate for 2 hours at room temperature, after which they were washed as before. […] Following a wash step, 50 µL of a 1:4000 dilution of Streptavidin-HRP (Amersham RPN4401) was added to each well and incubated for 30 minutes at room temperature. The wash process was repeated again followed by the addition of […] of Tetramethylbenzidine substrate solution (T8665, Sigma) into each well. Plates were incubated for 20-25 minutes at room temperature, wrapped in foil. The reaction was stopped with the addition of […] of 1M H₂SO₄. Optical density was determined at 450 nm using Spectromax reader.

[2] = target: T1, recombinant human BCMA Fc 4-53; assay: competition ELISA: binding of recombinant human APRIL to coated recombinant human BCMA Fc 4-53, biotinylated anti-APRIL and streptavidin-HRP, % of control
Experimental: as §1

[3] = target: T2, human BCMA expressed on cells (human, UniProt Q02223 1-184); assay: cell-based or functional assay
T2 sequence (looked up): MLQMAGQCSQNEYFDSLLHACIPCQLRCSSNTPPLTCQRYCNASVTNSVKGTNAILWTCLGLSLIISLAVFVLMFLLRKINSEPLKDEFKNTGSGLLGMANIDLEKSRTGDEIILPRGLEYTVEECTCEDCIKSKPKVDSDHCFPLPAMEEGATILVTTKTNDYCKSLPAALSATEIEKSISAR

[4] = target: T1, recombinant human BCMA Fc 4-53; assay: ELISA, neutralisation of ligand binding to plate-coated BCMA Fc 4-53; competitor APRIL; competitor APRIL
Experimental: as §1

[5] = target: T1, recombinant human BCMA Fc 4-53; assay: ELISA, neutralisation of ligand binding to plate-coated BCMA Fc 4-53; competitor BAFF; competitor BAFF
Experimental: as §1

[6] = target: T2, human BCMA expressed on cells; assay: FACS on H929 multiple myeloma cells, antibody 5 µg/mL, PE anti-mouse IgG
Experimental: Cells were incubated for 20 mins at room temperature (RT) and then washed with FACS buffer (PBS+0.5% BSA+0.1% sodium azide) to remove unbound antibody. Cells were incubated with a secondary PE labelled anti-mouse IgG antibody for 15 minutes at RT and then washed with FACS buffer to remove unbound antibody. Cells were analysed by FACS to detect antibody bound to the cells.

[7] = target: T3, recombinant cyno BCMA, in house material (cyno, UniProt A0A2K5UD97 4-52); assay: ProteOn SPR run 2, antibody captured on Protein A, 25C
T3 construct: also called Cyno in house BCMA

[8] = target: T4, recombinant human BCMA, commercial (US Biological, B0410) (human, UniProt Q02223 5-54, limits assumed); assay: as above
T4 construct: also called commercial human BCMA; Human commercial BCMA
T4 chain (looked up): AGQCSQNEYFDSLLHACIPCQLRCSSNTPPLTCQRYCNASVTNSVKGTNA

[9] = target: T5, recombinant human BCMA, in house material (human, UniProt Q02223 4-53, limits assumed); assay: ProteOn SPR run 2, antibody captured on Protein A, 25C; Run 2 (Table 9)
T5 construct: also called Human in house BCMA; In house human BCMA
Experimental: (§2) The initial screen of CA8 chimeric and humanised variants was carried out on the ProteOn XPR36 (Biorad). The method was as follows; Protein A was immobilised on a GLC chip (Biorad, Cat No: 176-5011) by primary amine coupling, CA8 variants were then captured on this surface and recombinant human BCMA (in house or commercial US Biological, B0410) materials (run 2 only)) passed over at 256, 64, 16, 4, 1 nM with a 0 nM injection (i.e. buffer alone) used to double reference the binding curves, the buffer used is the HBS-EP buffer. 50 mM NaOH was used to regenerate the capture surface. The data was fitted to the 1:1 model using the analysis software inherent to the ProteOn XPR36. […] Both runs were carried out at 25° C.

[10] = target: T4, recombinant human BCMA, commercial (US …); assay: Biacore T100, antibody captured on Protein A, 37C, experiment 1
Experimental: (§3) Protein A was immobilised on a CMS chip (GE Healthcare, Cat No: BR-1005-30) by primary amine coupling and this surface was then used to capture the antibody molecules. Recombinant human BCMA (US Biological, B0410) was used as analyte at 256 nM, 64 nM, 16 nM, 4 nM and 1 nM. Regeneration of the capture surface was carried out using 50 mM NaOH. All binding curves were double referenced with a buffer injection (i.e. 0 nM) the data was fitted to the using the 1:1 model inherent to T100 evaluation software. The run was carried out at 25° C. and 37° C. for experiment 1 and only 37° C. for experiment 2 using HBS-EP as the running buffer.

[11] = target: T2, human BCMA expressed on cells; assay: FACS on ARH77-hBCMA 10B5 transfectant cells, PE anti-human IgG, MFI
Experimental: Cells were then washed with FACS buffer (PBS+0.5% BSA+0.1% sodium azide) to remove unbound antibody. Cells were incubated with a secondary PE labelled anti-human IgG antibody for 15 minutes at RT and then washed with FACS buffer to remove unbound antibody. Cells were analysed by FACS and mean fluorescence intensity (MFI) values measured to determine binding.

[12] = target: T4, recombinant human BCMA, commercial (US …); assay: Biacore T100, antibody captured on Protein A, 37C, experiment 2
Experimental: as §3

[13] = target: T4, recombinant human BCMA, commercial (US …); assay: Biacore T100, antibody captured on Protein A, 25C, experiment 1
Experimental: as §3

[14] = target: T3, recombinant cyno BCMA, in house material; assay: Biacore T100, antibody captured on Protein A, 37C
[15] = target: T4, recombinant human BCMA, commercial (US …); assay: Biacore T100, antibody captured on Protein A, 37C
[16] = target: T5, recombinant human BCMA, in house …; assay: ProteOn SPR run 1, antibody captured on Protein A, 25C; Run 1 (Table 8)
Experimental: as §2

[17] = target: T5, recombinant human BCMA, in house …; assay: ProteOn SPR, antibody captured on Protein A, 25C
Experimental: The initial screen of the new chimeric variants from the second batch of hybridomas was carried out on the ProteOn XPR36 (Biorad). The method was as follows; Protein A was immobilised on a GLM chip (Biorad, Cat No: 176-5012) by primary amine coupling, anti-BCMA variants were then captured on this surface and recombinant human BCMA (in house material) passed over at 256, 64, 16, 4, 1 nM with a 0 nM injection (i.e. buffer alone) used to double reference the binding curves, the buffer used is the HBS-EP buffer. Regeneration of the capture surface was carried out using 50 mM NaOH. The data was fitted to the 1:1 model using the analysis software inherent to the ProteOn XPR36. The run was carried out at 25° C.

B1: J6M0 potelligent antibody (afucosylated humanised CA8 J6M0) (antibody, human IgG1, kappa, V domains shown)
VH: QVQLVQSGAEVKKPGSSVKVSCKASGGTFSNYWMHWVRQAPGQGLEWMGATYRGHSDTYYNQKFKGRVTITADKSTSTAYMELSSLRSEDTAVYYCARGAIYDGYDVLDNWGQGTLVTVSS
VL: DIQMTQSPSSLSASVGDRVTITCSASQDISNYLNWYQQKPGKAPKLLIYYTSNLHSGVPSRFSGSGSGTDFTLTISSLQPEDFATYYCQQYRKLPWTFGQGTKLEIKR
modifications: afucosylated (Potelligent) Fc glycan
notes: human IgG1 kappa; also called J6M0 potelligent version; CA8 J6M0 Potelligent
- IC50 (read off the curve) [1]: ~0.7 µg/mL
- IC50 (read off the curve) [2]: ~0.6 µg/mL
- IC50 for inhibition of APRIL signalling (phosphorylated NFkappaB in washed H-929 cells) [3]: 2.43 µg/mL
- IC50 for inhibition of BAFF signalling (phosphorylated NFkappaB in washed H-929 cells) [3]: 0.91 µg/mL
- EC50 [4]: 0.616 µg/mL
- EC50 [5]: 0.748 µg/mL

B2: murine S322110D07 (antibody, V domains shown)
VH: EVQLQQSGPELVKPGTSVKIPCKTSGYIFTDYSIDWVKQSHGKSLEWIGDIDPNYGDPIYNHKFKGKATLTVDRSSSTAYMELRSLTSEDTAVYFCARRATGTDWFAFWGQGTLVTVSS
VL: DIQMTQSPASLSVSVGETVTITCRASENIYNNLAWYQQKQGKSPQLLVYAATILADGVPSRFSGSGSGTQYSLKINSLQSGDFGTYYCQHFWGTPLTFGAGTKLELKR
notes: Murine hybridoma antibody; also called S3222110D07; S3322110D07
- binding result [6]: binds

B3: murine S332121F02 (antibody, V domains shown)
VH: EVQLQQSGPVLVKPGASVKMSCEASGYTFTDYYMNWVKQSHGKTLEWIGVINPYNGGTDYNQKFKGKATLTVDKSSSTAYMELNSLTSEDSAVYYCARSVYDYPFDYWGQGTLVTVSS
VL: DIVLTQSPASLAVSLGQRATISCRASESVSIHGTHLMHWYQQKPGQPPKLLIYAASNLESGVPARFSGSGSETDFTLNIHPVEEEDAATYFCQQSIEDPRTFGGGTKLEIK
notes: Murine hybridoma antibody
- binding result [6]: binds

B4: CA8 humanised J6M0 (antibody, human IgG1, kappa, V domains shown)
VH: QVQLVQSGAEVKKPGSSVKVSCKASGGTFSNYWMHWVRQAPGQGLEWMGATYRGHSDTYYNQKFKGRVTITADKSTSTAYMELSSLRSEDTAVYYCARGAIYDGYDVLDNWGQGTLVTVSS
VL: DIQMTQSPSSLSASVGDRVTITCSASQDISNYLNWYQQKPGKAPKLLIYYTSNLHSGVPSRFSGSGSGTDFTLTISSLQPEDFATYYCQQYRKLPWTFGQGTKLEIKR
notes: Humanised CA8, heavy chain J6 with light chain M0, human IgG1 kappa; also called CA8 J6M0; humanised J6M0 (wild type)
- IC50 (read off the curve) [1]: ~0.7 µg/mL
- Kd [7]: 5.63 nM
- Kd [8]: 0.086 nM
- Kd [9]: 0.308 nM
- Kd [10]: 0.698 nM
- IC50 (read off the curve) [2]: ~0.6 µg/mL
- binding result [11]: binds
- Kd [12]: 0.498 nM
- EC50 [4]: 0.63 µg/mL
- Kd [13]: 0.121 nM
- EC50 [5]: 0.776 µg/mL

B5: CA8 humanised J9M0 (antibody, human IgG1, kappa, V domains shown)
VH: QVQLVQSGAEVKKPGSSVKVSCKGSGYTFTNYWMHWVRQAPGQGLEWIGATYRGHSDTYYNQKFKGRATLTADTSTSTAYMELSSLRSEDTAVYYCTRGAIYDGYDVLDNWGQGTLVTVSS
VL: DIQMTQSPSSLSASVGDRVTITCSASQDISNYLNWYQQKPGKAPKLLIYYTSNLHSGVPSRFSGSGSGTDFTLTISSLQPEDFATYYCQQYRKLPWTFGQGTKLEIKR
notes: Humanised CA8, heavy chain J9 with light chain M0, human IgG1 kappa; also called CA8 J9M0
- Kd [10]: 0.042 nM
- Kd [14]: 0.46 nM
- Kd [15]: 0.035 nM
- binding result [11]: binds
- Kd [12]: 0.052 nM
- Kd [13]: 0.021 nM

B6: S307118G03 Chimera (antibody, human IgG1, kappa, V domains shown)
VH: EVQLQQSGPELVKPGASVKISCKASGYTFTDYYMKWVKQSHGKSLEWIGEIYPNNGGITYNQKFKGKATLTVDKSSSTAYMELRSLTSEDSAVYYCANGYEFVYWGQGTLVTVSA
VL: DIQMTQTASSLSASLGDRVTISCSASQGISNYLNWYQQKPDGTVKLLIYYTSSLHSGVPSRFSGSGSGTDYSLTISNLEPEDIATYYCQQYSKLPWTFGGGTKLELKR
notes: also called chimeric S307118G03
- binding result [7]: no binding
- Kd [8]: 0.956 nM
- Kd [9]: 3.44 nM
- Kd [16]: 4.11 nM

B7: S322110D07 chimeric antibody (printed S332110D07 in Table 12) (antibody, human IgG1, kappa, V domains shown)
VH: EVQLQQSGPELVKPGTSVKIPCKTSGYIFTDYSIDWVKQSHGKSLEWIGDIDPNYGDPIYNHKFKGKATLTVDRSSSTAYMELRSLTSEDTAVYFCARRATGTDWFAFWGQGTLVTVSS
VL: DIQMTQSPASLSVSVGETVTITCRASENIYNNLAWYQQKQGKSPQLLVYAATILADGVPSRFSGSGSGTQYSLKINSLQSGDFGTYYCQHFWGTPLTFGAGTKLELKR
notes: Section 4.10 says that the samples are new chimeric constructs (human IgG1 kappa); also called chimeric S322110D07
- Kd [17]: 12.1 nM

B8: S332121F02 chimeric antibody (antibody, human IgG1, kappa, V domains shown)
VH: EVQLQQSGPVLVKPGASVKMSCEASGYTFTDYYMNWVKQSHGKTLEWIGVINPYNGGTDYNQKFKGKATLTVDKSSSTAYMELNSLTSEDSAVYYCARSVYDYPFDYWGQGTLVTVSS
VL: DIVLTQSPASLAVSLGQRATISCRASESVSIHGTHLMHWYQQKPGQPPKLLIYAASNLESGVPARFSGSGSETDFTLNIHPVEEEDAATYFCQQSIEDPRTFGGGTKLEIKR
notes: Section 4.10 says that the samples are new chimeric constructs (human IgG1 kappa)
- Kd [17]: 17.3 nM
